Sequences and labels used below:
T1: human NTCP (Homo sapiens, UniProt Q14973)
T1 construct: made in house; host or cells: wheat germ cell-free protein synthesis system
T1 sequence (Q14973 1-349): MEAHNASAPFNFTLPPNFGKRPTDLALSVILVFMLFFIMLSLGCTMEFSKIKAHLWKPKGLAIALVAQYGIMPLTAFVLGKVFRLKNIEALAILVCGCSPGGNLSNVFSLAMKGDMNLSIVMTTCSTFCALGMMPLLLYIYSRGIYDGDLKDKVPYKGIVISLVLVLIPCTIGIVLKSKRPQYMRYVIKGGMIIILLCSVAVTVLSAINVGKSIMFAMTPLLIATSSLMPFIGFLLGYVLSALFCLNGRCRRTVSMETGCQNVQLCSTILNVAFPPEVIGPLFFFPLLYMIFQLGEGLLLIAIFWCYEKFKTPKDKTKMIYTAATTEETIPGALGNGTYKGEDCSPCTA

T2: His-tagged recombinant NTCP protein (human sodium taurocholate cotransporting polypeptide) (human), Q14973
T2 chain: T1 sequence (Q14973 1-349)

Where a SMILES comes first, the peptide text is derived from it. Bridges are numbered along the chain shown (N, C = ends). [ ]: non-standard residue; d: D form. NMeS = CN[C@@H](CO)C(=O)O; Sar = CNCC(=O)O

In the first test the target is T1, human NTCP. In words: Surface plasmon resonance binding to immobilized recombinant NTCP. The following applies: Kd, single-cycle kinetics, 1:1 binding model, NTCP immobilized on NTA-Ni2+. The procedure: FIG. 7 is a diagram showing the NTCP association constant of a peptide identified by first RaPID screening. A single-cycle reaction kinetics experiment was conducted using NTCP immobilized on surface (NTA-Ni^2+) involving varying concentrations of a cyclic peptide analyte. In each case, as shown in the drawing, the peptide was tested with 4-fold serial dilutions starting from the highest concentration of 200 or 1000 nM. A dissociation constant (KD) was determined using a 1:1 binding model.
FIG. 9 is a diagram showing the NTCP association constant of a peptide identified by focused library RaPID screening. A single-cycle association constant experiment was conducted using NTCP immobilized on surface (NTA-Ni^2+) involving varying concentrations of a cyclic peptide analyte. In each case, as shown in the drawing, the peptide was tested with 4-fold serial dilutions starting from the highest concentration of 200 or 1000 nM. A dissociation constant (KD) was determined using a 1:1 binding model.
The association constant of each peptide for human NTCP was measured using a Biacore T200 apparatus (GE Healthcare Japan Corp.). The running buffer solution used was HBS-P+ (10 mM HEPES, 150 mM NaCl, and 0.05 vol % surfactant P20, pH 7.4) containing 0.1 vol % DMSO and 1 mM β-dodecyl-maltoside. 100 nM recombinant NTCP was immobilized on a NTA chip treated with Ni^2+ according to the manufacturer's instructions (baseline response: 1000 to 3000 refraction units). Peptides were injected as analytes at a flow rate of 60 μL/min, and association constants were modelled using a 1:1 binding model.
A word on the Kd: it is the concentration at which binding is half-saturated. For `CC(C)C[C@@H]1NC(=O)[C@H](Cc2ccc(O)cc2)NC(=O)CSC[C@@H](C(=O)NCC(N)=O)NC(=O)[C@H](CC(C)C)NC(=O)[C@H](CO)NC(=O)[C@H]([C@@H](C)O)NC(=O)[C@H](C(C)C)NC(=O)[C@H]([C@@H](C)O)NC(=O)[C@H](Cc2c[nH]c3ccccc23)NC(=O)[C@H](CC(N)=O)NC(=O)[C@H](CO)NC(=O)[C@H](Cc2c[nH]cn2)NC(=O)[C@H](Cc2c[nH]c3ccccc23)NC(=O)[C@H]([C@@H](C)O)NC(=O)[C@H](Cc2c[nH]c3ccccc23)NC(=O)[C@H]([C@@H](C)O)NC(=O)[C@H](Cc2ccc(O)cc2)NC1=O` [L1] ({CH2CO}-YLYTWTWHSNWTVTSLCG-NH2; thioether N-17), the Kd was 21 nM.

In the case of `CC[C@H](C)[C@@H]1NC(=O)[C@H](Cc2ccc(O)cc2)NC(=O)[C@H](CC(C)C)NC(=O)[C@H](C)NC(=O)[C@H]([C@@H](C)O)NC(=O)[C@H](CC(N)=O)NC(=O)[C@H](Cc2c[nH]c3ccccc23)NC(=O)[C@H](CCC(=O)O)NC(=O)[C@@H]2CCCN2C(=O)[C@H](Cc2ccc(O)cc2)NC(=O)[C@H](Cc2c[nH]c3ccccc23)NC(=O)[C@H](Cc2ccc(O)cc2)NC(=O)[C@H](Cc2c[nH]cn2)NC(=O)[C@@H](Cc2ccc(O)cc2)NC(=O)CSC[C@@H](C(=O)NCC(N)=O)NC(=O)[C@@H]2CCCN2C(=O)[C@H](Cc2c[nH]c3ccccc23)NC1=O` [D3] ({CH2CO}-[dY]HYWYPEWNTALYIWPCG-NH2; thioether N-17), the dissociation constant Kd came to 50 nM.

Regarding `CC(C)C[C@@H]1NC(=O)[C@H](Cc2ccc(O)cc2)NC(=O)[C@H](C)NC(=O)[C@H](CO)N(C)C(=O)[C@H](Cc2c[nH]cn2)NC(=O)[C@H](Cc2c[nH]c3ccccc23)NC(=O)[C@H]([C@@H](C)O)NC(=O)[C@H](Cc2c[nH]c3ccccc23)NC(=O)[C@H]([C@@H](C)O)NC(=O)[C@H](Cc2ccc(O)cc2)NC(=O)CSC[C@@H](C(=O)N[C@H](C(N)=O)[C@@H](C)O)NC(=O)[C@H](Cc2ccccc2)NC(=O)[C@H](C(C)C)NC(=O)[C@H](Cc2ccc(O)cc2)NC1=O` [WL3] ({CH2CO}-YTWTWH[NMeS]AYLYVFCT-NH2; thioether N-14), the equilibrium dissociation constant (Kd) came to 57 nM.

In the case of `CC[C@H](C)[C@@H]1NC(=O)[C@H](Cc2c[nH]cn2)NC(=O)[C@H]([C@@H](C)CC)NC(=O)[C@H](CO)N(C)C(=O)[C@@H]2CCCN2C(=O)[C@H](Cc2ccc(O)cc2)NC(=O)[C@H](Cc2ccc(O)cc2)NC(=O)[C@H]([C@@H](C)CC)NC(=O)[C@H](Cc2ccc(O)cc2)NC(=O)[C@H](CC(N)=O)NC(=O)[C@@H](Cc2ccc(O)cc2)NC(=O)CSC[C@@H](C(=O)N[C@H](C(N)=O)[C@@H](C)O)NC(=O)[C@H](CC(C)C)NC(=O)[C@H](Cc2ccc(O)cc2)NC(=O)[C@H](Cc2ccccc2)NC1=O` [PD1] ({CH2CO}-[dY]NYIYYP[NMeS]IHIFYLCT-NH2; thioether N-15), the Kd turned out to be 149 nM.

For `CC(C)C[C@@H]1NC(=O)[C@H](CC(=O)O)NC(=O)[C@H](CC(C)C)NC(=O)[C@H](Cc2ccccc2)NC(=O)[C@H](Cc2c[nH]c3ccccc23)NC(=O)[C@H](CO)NC(=O)[C@H](CCCNC(=N)N)NC(=O)[C@H](CCC(=O)O)NC(=O)[C@H](C)NC(=O)[C@H](Cc2c[nH]c3ccccc23)NC(=O)[C@H](CC(C)C)NC(=O)[C@H](CC(C)C)NC(=O)[C@H](Cc2c[nH]c3ccccc23)NC(=O)[C@H](C(C)C)NC(=O)[C@H](Cc2ccc(O)cc2)NC(=O)CSC[C@@H](C(=O)NCC(N)=O)NC(=O)CNC1=O` [L2] ({CH2CO}-YVWLLWAERSWFLDLGCG-NH2; thioether N-17), the Kd stood at 374 nM.

In the case of `CC[C@H](C)[C@@H]1NC(=O)[C@H](Cc2c[nH]c3ccccc23)NC(=O)[C@H](CC(C)C)NC(=O)[C@H](Cc2ccc(O)cc2)NC(=O)CSC[C@@H](C(=O)NCC(N)=O)NC(=O)CNC(=O)[C@H](CC(C)C)NC(=O)[C@H](CC(=O)O)NC(=O)[C@H](Cc2ccccc2)NC(=O)[C@H]([C@@H](C)O)NC(=O)[C@H](Cc2ccc(O)cc2)NC(=O)[C@H](Cc2c[nH]c3ccccc23)NC(=O)[C@H](CC(N)=O)NC(=O)[C@H](CCC(N)=O)NC(=O)[C@H](Cc2c[nH]cn2)NC(=O)[C@H](Cc2ccccc2)NC1=O` [L3] ({CH2CO}-YLWIFHQNWYTFDLGCG-NH2; thioether N-16), the equilibrium dissociation constant (Kd) worked out at 13 nM.

Turning to `CC(C)C[C@@H]1NC(=O)[C@H](Cc2ccccc2)NC(=O)[C@H](C)NC(=O)[C@H](CO)N(C)C(=O)[C@H](CC(N)=O)NC(=O)[C@H](Cc2c[nH]c3ccccc23)NC(=O)[C@H]([C@@H](C)O)NC(=O)[C@H](Cc2c[nH]c3ccccc23)NC(=O)[C@H]([C@@H](C)O)NC(=O)[C@H](Cc2ccc(O)cc2)NC(=O)CSC[C@@H](C(=O)N[C@H](C(N)=O)[C@@H](C)O)NC(=O)[C@H](Cc2ccc(O)cc2)NC(=O)[C@H](C(C)C)NC(=O)[C@H](Cc2ccc(O)cc2)NC1=O` [WL6] ({CH2CO}-YTWTWN[NMeS]AFLYVYCT-NH2; thioether N-14), the Kd came to 36 nM.

Regarding `CC(C)C[C@@H]1NC(=O)[C@H](Cc2ccc(O)cc2)NC(=O)CSC[C@@H](C(=O)NCC(N)=O)NC(=O)[C@H](C(C)C)NC(=O)[C@H](CC(N)=O)NC(=O)[C@H](Cc2ccc(O)cc2)NC(=O)[C@H](C)NC(=O)[C@H](Cc2ccc(O)cc2)NC(=O)[C@H](CO)NC(=O)[C@H]([C@@H](C)O)NC(=O)[C@H](CC(N)=O)NC(=O)[C@@H]2CCCN2C(=O)[C@H](Cc2c[nH]c3ccccc23)NC(=O)[C@H]([C@@H](C)O)NC(=O)[C@H](Cc2c[nH]c3ccccc23)NC(=O)[C@H](CC(C)C)NC(=O)[C@H](Cc2ccc(O)cc2)NC1=O` [L4] ({CH2CO}-YLYLWTWPNTSYAYNVCG-NH2; thioether N-17), the Kd was determined as 30 nM.

As for `CC[C@H](C)[C@@H]1NC(=O)[C@H](Cc2c[nH]c3ccccc23)NC(=O)[C@H]([C@@H](C)O)NC(=O)[C@@H](Cc2ccc(O)cc2)NC(=O)CSC[C@@H](C(=O)N[C@H](C(N)=O)[C@@H](C)O)NC(=O)[C@@H]2CCCN2C(=O)[C@H](Cc2ccccc2)NC(=O)[C@H](Cc2ccc(O)cc2)NC(=O)[C@H](C(C)C)NC(=O)[C@H](C(C)C)NC(=O)[C@H](Cc2ccc(O)cc2)NC(=O)[C@H](CC(C)C)NC(=O)CN(C)C(=O)CN(C)C(=O)[C@H](Cc2c[nH]c3ccccc23)NC1=O` [WD2] ({CH2CO}-[dY]TWIW[Sar][Sar]LYVVYFPCT-NH2; thioether N-15), the Kd is 14 nM.

A further test addresses T2, His-tagged recombinant NTCP protein …. The test can be described thus: SPR (Biacore T200), single-cycle kinetics, His-NTCP on Ni2+-NTA chip, peptide as analyte, 1:1 model.
Conditions: not given
(In general: Surface plasmon resonance follows binding to a sensor surface in real time, without labels.)
As to YHYWYPEWNTALYIWPCG (modifications not checked) [NTCP-D3], the Kd was 50 nM.

With YILVYPELHLFLLYSCG (modifications not checked) [NTCP-D4], the Kd worked out at 2270 nM.

For YWWAINPHIHVFTWPCG (modifications not checked) [NTCP-D2], the equilibrium dissociation constant (Kd) came to 14 nM.

Take YLWIFHQNWYTFDLGCG (modifications not checked) [NTCP-L3]: the Kd came to 13 nM.

Take YTFTYAQIWIWYYGCT (modifications not checked) [WD4]: the Kd stood at 11 nM.

For YTWTWNSAFLYVYCT (modifications not checked) [WL6], the Kd came out at 36 nM.

With YTWTWHSAYLYVFCT (modifications not checked) [WL3], the Kd was 57 nM.

YTWNTHHYYIWLNCG (modifications not checked) [NTCP-L5]: the Kd stood at 4 nM.

Take YTWIWGGLYVVYFPCT (modifications not checked) [WD2]: the Kd amounted to 14 nM.

Consider YNYIYYPSIHIFYLCT (modifications not checked) [PD1], for which the Kd is 149 nM.

With YLYTWTWHSNWTVTSLCG (modifications not checked) [NTCP-L1], the Kd was determined as 21 nM.

Consider YLYLWTWPNTSYAYNVCG (modifications not checked) [NTCP-L4], for which the Kd is 30 nM.

For the molecule YTYKYSGIWIWIWCT (modifications not checked) [WL1], the dissociation constant (Kd) was 360 nM.

YTWTWQNSFIWIYCT (modifications not checked) [WL5]: the Kd turned out to be 10 nM.

Consider YVWLLWAERSWFLDLGCG (modifications not checked) [NTCP-L2], for which the Kd is 374 nM.

Regarding YALIWTWSQYYQYYSCT (modifications not checked) [WD3], the Kd came out at 15 nM.

The values are drawn from patent US20210061859A1, “NTCP Inhibitor” (The University of Tokyo, priority 2018, published 2021).
